Legend:
[1] = compound: CCc1ncccc1Oc1cc(Sc2ccccn2)cnc1NC=O; assay: (§1) Activation of purified human glucokinase isoform 3 (13 to 466 aa) assessed as Vmax by spectrophotometry in presence of varying concentration of glucose relative to control
[2] = compound: CCOC(=O)Nc1ncc(Sc2ccccn2)cc1Oc1cccnc1CC; assay: as §1
[3] = compound: CNC(=O)Nc1ncc(SC2CCN(C(C)=O)CC2)cc1Oc1cccnc1C; assay: as §1
[4] = compound: CCc1ncccc1Oc1cc(Sc2ccccn2)cnc1NC(=O)NCc1ccc(O)cc1; assay: as §1
[5] = compound: CNC(=O)Nc1ncc(SCCCO)cc1Oc1cccnc1C; assay: as §1
[6] = compound: CCc1ncccc1Oc1cc(Sc2ccccn2)cnc1NC(=O)NCCO; assay: as §1
[7] = compound: CCn1nccc1Oc1cc(Sc2ccccn2)cnc1NC(=O)NC; assay: as §1
[8] = compound: CNC(=O)Nc1ncc(SC2CCOCC2)cc1Oc1cccnc1C; assay: as §1
[9] = compound: CCNC(=O)Nc1ncc(Sc2ccccn2)cc1Oc1cccnc1CC; assay: as §1
[10] = compound: CCc1ncccc1Oc1cc(Sc2ccccn2)cnc1NC(=O)NC(C)C; assay: as §1
[11] = compound: CNC(=O)Nc1ncc(SCC2CCOCC2)cc1Oc1cccnc1C; assay: as §1
[12] = compound: CNC(=O)Nc1ncc(Sc2ccccn2)cc1Oc1cccnc1C; assay: as §1
[13] = compound: CCc1ncccc1Oc1cc(Sc2ccccn2)cnc1NC(N)=O; assay: as §1
[14] = compound: CNC(=O)Nc1ncc(SC2CCN(C(=O)OC(C)(C)C)CC2)cc1Oc1cccnc1C; assay: as §1
[15] = compound: CCc1ncccc1Oc1cc(Sc2ccccn2)cnc1NC(=O)NCc1cccc(O)c1; assay: as §1
[16] = compound: CCc1ncccc1Oc1cc(Sc2ccccn2)cnc1NC(C)=O; assay: as §1
[17] = compound: CCc1ncccc1Oc1cc(Sc2ccccn2)cnc1NC(=O)NCc1cccnc1; assay: as §1
[18] = compound: CCc1ncccc1Oc1cc(Sc2ccccn2)cnc1NC(=O)NCc1ccncc1; assay: as §1
[19] = compound: CNC(=O)Nc1ncc(SCc2ccccc2)cc1Oc1cccnc1C; assay: as §1
[20] = compound: CNC(=O)Nc1ncc(Sc2ccccn2)cc1Oc1c(C)n[nH]c1C; assay: as §1
[21] = compound: CCc1ncccc1Oc1cc(Sc2ccccn2)cnc1NC(=O)NC; assay: as §1
[22] = compound: CNC(=O)Nc1ncc(SCCCOC)cc1Oc1cccnc1C; assay: as §1
[23] = compound: CCc1ncccc1Oc1cc(Sc2ccccn2)cnc1NC(=O)NCc1ccccc1O; assay: as §1
[24] = compound: CCc1ncccc1Oc1cc(Sc2ccccn2)cnc1NC(=O)NCc1ccccn1; assay: as §1
[25] = compound: CNC(=O)Nc1ncc(SC2CCN(S(C)(=O)=O)CC2)cc1Oc1cccnc1C; assay: as §1
[26] = compound: CNC(=O)Nc1ncc(SCc2ccccn2)cc1Oc1cccnc1C; assay: as §1

B1: Hexokinase-4 (Homo sapiens), P35557 (protein)
chain: MLDDRARMEAAKKEKVEQILAEFQLQEEDLKKVMRRMQKEMDRGLRLETHEEASVKMLPTYVRSTPEGSEVGDFLSLDLGGTNFRVMLVKVGEGEEGQWSVKTKHQMYSIPEDAMTGTAEMLFDYISECISDFLDKHQMKHKKLPLGFTFSFPVRHEDIDKGILLNWTKGFKASGAEGNNVVGLLRDAIKRRGDFEMDVVAMVNDTVATMISCYYEDHQCEVGMIVGTGCNACYMEEMQNVELVEGDEGRMCVNTEWGAFGDSGELDEFLLEYDRLVDESSANPGQQLYEKLIGGKYMGELVRLVLLRLVDENLLFHGEASEQLRTRGAFETRFVSQVESDTGDRKQIYNILSTLGLRPSTTDCDIVRRACESVSTRAAHMCSAGLAGVINRMRESRSEDVMRITVGVDGSVYKLHPSFKERFHASVRRLTPSCEITFIESEEGSGRGAALVSAVACKKACMLGQ
[1]
  Vmax: 104%
[2]
  Vmax: Not active
[3]
  Vmax: 59%
[4]
  Vmax: 66%
[5]
  Vmax: 80%
[6]
  Vmax: 66%
[7]
  Vmax: 90%
[8]
  Vmax: 73%
[9]
  Vmax: 64%
[10]
  Vmax: Not active
[11]
  Vmax: 88%
[12]
  Vmax: 74%
[13]
  Vmax: 77%
[14]
  Vmax: 75%
[15]
  Vmax: 68%
[16]
  Vmax: Not active
[17]
  Vmax: 75%
[18]
  Vmax: 73%
[19]
  Vmax: 76%
[20]
  Vmax: 53%
[21]
  Vmax: 77%
[22]
  Vmax: 87%
[23]
  Vmax: 84%
[24]
  Vmax: 72%
[25]
  Vmax: 54%
[26]
  Vmax: 146%

Source: ChEMBL document CHEMBL3352420, “Discovery of 2-pyridylureas as glucokinase activators” (J Med Chem, 2014)
